From patent publication US20250304621A1, “POLYPEPTIDE FOR SPECIFICALLY BLOCKING BINDING OF ACVR1C TO GREM1 AND USE THEREOF” (The Seventh Affiliated Hospital, Sun Yat-Sen University, priority 2024, published 2025)
Entries after “also recorded” stand apart in the source; their conditions may differ.

T1: binding of GREM1 to ACVR1C (Homo sapiens, UniProt O60565)
T1 construct: his-tagged full-length GREM1 were purified; His; made in house
T1 sequence (O60565 25-184): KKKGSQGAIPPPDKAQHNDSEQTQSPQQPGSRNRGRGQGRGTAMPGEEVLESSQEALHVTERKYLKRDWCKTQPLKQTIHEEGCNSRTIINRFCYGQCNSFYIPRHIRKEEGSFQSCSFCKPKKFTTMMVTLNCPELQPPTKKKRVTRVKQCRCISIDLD

T2: GREM1 (Homo sapiens (Human), UniProt O60565 25-184, limits assumed)
T2 construct: also called Gremlin1
T2 sequence: T1 sequence (O60565 25-184)

B1: truncated ACVR1C-ECD lacking amino acids 68-113 (A4) (receptor)
chain: ELSPGLKCVCLLCDSSNFTCQTEGACWASVMLTNGKEQVIKSCVSLP

Legend:
[1] = biological target: T1, binding of GREM1 to ACVR1C; assay: Pull-down experiment: Fc-tagged ACVR1C-ECD and his-tagged full-length GREM1 with ACVR1C peptide; conditions: purified Fc-tagged ACVR1C-ECD (AA 1-113) and his-tagged full-length GREM1; FIG. 11b
Procedure: The Fc-tagged ACVR1C extracellular domain (ACVR1C-ECD, AA 1-113) and his-tagged full-length GREM1 were purified, and ACVR1C peptide (with an amino acid sequence of TECCFTDFCNNITLHLPTA, SEQ ID NO: 7) which blocked the binding of ACVR1C to GREM1 ligand thereof was synthesized (FIG. 11a). The Pull-down experiment was performed.

[2] = tested on: HCT116-luc cells (colorectal liver metastasis); assay: Colorectal liver metastasis model: HCT116-luc cells injected through the spleen, live bioluminescence imaging; type: in vivo; conditions: NOG mice, PLV-GREM1 HCT116-luc cells via spleen, 10 mg/kg by tail vein once every 2 days
Procedure: Grouping: a total of 18 6-week-old NOG mice were taken and randomized into 3 groups 5 days after adaptive feeding: control group (PLV), GREM1 overexpression group (PLV-GREM1) and ACVR1C polypeptide treatment group (PLV-GREM1+ACVR1C peptide), 6/group.
Modeling: HCT116-luc cell suspensions were prepared with cell densities adjusted to 1×10^7 cells/mL. The mice to be treated were taken out and anesthetized by intraperitoneal injection of 2% sodium pentobarbital at a dose of 45 μL/20 g. After about 5 minutes, the mice began to enter a quiet state. White gauze was spread on a mouse board, the mice were placed in left lying position, the abdominal hair of the mice was shaved, and the abdominal side was disinfected from the neck to the groin with alcohol cotton pads. The skin was cut open 1-2 cm below the lower edge of the left costal arch to expose the abdominal wall muscles. The abdominal wall muscles were pulled with pointed forceps to avoid the spleen in the abdominal cavity. The abdominal wall muscles were cut open to expose the internal organs. The pancreas was gently pulled with circular forceps, and the spleen was pulled out. […]

[3] = biological target: T2, GREM1; assay: co-IP in HCT116 cells
Source text: To further describe the binding sites between GREM1 and ACVR1C, a truncated GREM1 and ACVR1C extracellular domain (ACVR1C-ECD) is constructed.

Molecule	inhibition of the binding of GREM1 to ACVR1C (pull-down) [1]	inhibition of liver metastasis of colorectal cancer cells (bioluminescence imaging) ([2]; FIG. 12)	inhibition of liver metastasis of colorectal cancer cells (bioluminescence imaging) ([2]; FIG. 12, listed as polypeptide)	binding result [3]
TECCFTDFCNNITLHLPTA [ACVR1C peptide]	competitively inhibited the binding of GREM1 to ACVR1C; also recorded: can interfere or block the binding of GREM1 to ACVR1C	significantly lower than that in a control group	significantly inhibits liver metastasis of colorectal cancer cells; also recorded: significantly inhibit the colorectal cancer metastasis	–
B1	–	–	–	no binding
